Test results from the supplement of paper PMC10724198.

Key:
Saccharomyces cerevisiae [1] = experiment: protein stability index of tFT-peptide fusion in wild type (PSI (0-1 scale)); higher = more stable (slower turnover); conditions: genetic background: wild type
Procedure: (§1)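 MPS profiling in S. cerevisiae of two library types built from selected 12-aa C-degron peptides (IN1, IN2, LN1, LN3, VN2, R1-R5, W1-W3, Atg1 and Rpa12 C-termini): saturation mutagenesis libraries and C-terminal +1 capping libraries (13 aa). Each peptide is fused to the C-terminus of a sfGFP-mCherry timer, after a GGGS linker. Cells are FACS-sorted into 8 mCherry/sfGFP bins and sequenced. PSI runs from 0 (unstable) to 1 (stable), measured once in wild type and in the das1Δ or doa10Δ background.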

Saccharomyces cerevisiae [2] = experiment: protein stability index of tFT-peptide fusion in deletion strain of DAS1 (PSI (0-1 scale)); higher = more stable (slower turnover)
Procedure: as §1
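Wherever protein stability index of tFT-peptide fusion in deletion strain of DAS1 is given: PSI is a weighted mean of each variant's read distribution over the sorted stability bins, computed only for variants having over 10 reads in total.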
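Wherever protein stability index of tFT-peptide fusion in wild type is given: PSI derived as read-weighted mean over the 8 sorting bins, only variants exceeding 10 total reads kept, mCherry placed adjacent to the peptide and sfGFP distal.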

Row | Sequence | protein stability index (Saccharomyces cerevisiae [1]) | protein stability index (Saccharomyces cerevisiae [2])
1 | LVVYLSCIACIN | 0.0141 | 0.0218
2 | PDKRNHLIKLLNR | 0.652 | 0.668
3 | ARWRVGLWRAAS | 0.117 | 0.683
4 | FSMRWTFRYWVP | 0.541 | 0.541
5 | LKILRQKMCHQN | 0.217 | 0.68
6 | RLIQPLPVQFPN | 0.622 | 0.605
7 | VRGAVGTWRLVG | 0.171 | 0.694
8 | KKHKKPQKQKIN | 0.0387 | 0.659
9 | LVVYLSCVACIND | 0.0204 | 0.0356
10 | KCHKKGQKQKIN | 0.342 | 0.592
11 | HTSCGYKFRTNN | 0.215 | 0.677
12 | KKDKKGQKQKIN | 0.104 | 0.601
13 | PLKRNHLIKLLN | 0.135 | 0.622
14 | ARWRVGLWRDAS | 0.6 | 0.702
15 | PDKRNHSIKLLN | 0.174 | 0.631
16 | FSMRWTERYWVN | 0.0612 | 0.572
17 | WKHKKGQKQKIN | 0.135 | 0.546
18 | FSMRWTFIYWVN | 0.0416 | 0.263
19 | FSMRWTFCYWVN | 0.0818 | 0.365
20 | FSWRWTFRYWVN | 0.0592 | 0.756

Row | Sequence | protein stability index (Saccharomyces cerevisiae [1]) | protein stability index (Saccharomyces cerevisiae [2])
21 | ARWRVPLWRGAS | 0.646 | 0.684
22 | ARWRVGLSRGAS | 0.669 | 0.695
23 | RLIQPLPVQMLN | 0.0702 | 0.606
24 | VRGAVGGPRLVG | 0.661 | 0.669
25 | ARWPVGLWRGAS | 0.399 | 0.703
26 | CTSCGYDFRTNN | 0.639 | 0.691
27 | PSLAASFWEVVG | 0.697 | 0.712
28 | FSMRWTFRYWVNV | 0.147 | 0.5
29 | ARWRFGLWRGAS | 0.581 | 0.698
30 | CTSCGNKFRTNN | 0.52 | 0.695
31 | QRWRVGLWRGAS | 0.345 | 0.683
32 | CTSCGYKFRTNT | 0.579 | 0.693
33 | VRGAVGGWRLVF | 0.564 | 0.677
34 | LKILRQKMNHQNG | 0.657 | 0.662
35 | ARWRVGLWPGAS | 0.71 | 0.689
36 | VQGAVGGWRLVG | 0.14 | 0.708
37 | PDKRNSLIKLLN | 0.163 | 0.723
38 | PDKRNHLIKLLA | 0.114 | 0.57
39 | RKHKKGQKQKIN | 0.121 | 0.574
40 | KKHKKGQKWKIN | 0.102 | 0.612

Row | Sequence | protein stability index (Saccharomyces cerevisiae [1]) | protein stability index (Saccharomyces cerevisiae [2])
41 | RSLAASFWRVVG | 0.117 | 0.689
42 | PPLAASFWRVVG | 0.165 | 0.673
43 | CTSCRYKFRTNN | 0.395 | 0.68
44 | PWLAASFWRVVG | 0.0915 | 0.717
45 | ARWRVGLWRGTS | 0.318 | 0.682
46 | ARWRVGLWRGIS | 0.109 | 0.68
47 | LVVYLSCVARIN | 0.0258 | 0.0375
48 | PSEAASFWRVVG | 0.175 | 0.702
49 | LVVYLSCVACIR | 0.0163 | 0.0325
50 | LVVYVSCVACIN | 0.0192 | 0.0341
51 | FSMRWTFRYWGN | 0.19 | 0.547
52 | FRGAVGGWRLVG | 0.192 | 0.685
53 | VRGAVGGWRLVV | 0.16 | 0.675
54 | KKHKKGTKQKIN | 0.0759 | 0.608
55 | CTSCGYKFRTNK | 0.689 | 0.704
56 | ARWRVGLWRGASF | 0.661 | 0.679
57 | CTSCGYKFRTHN | 0.325 | 0.717
58 | PSLAASFWRVVGG | 0.651 | 0.682
